According to patent publication US20040048289A1, “Magnetic particle membrane-specific protein” (priority 2000, published 2004):

Tests used:
[1] = GTPase activity (hydrolysis of 32P-labelled GTP, PEI cellulose TLC, bioimaging analyzer); format: biochemical; conditions: immunoprecipitate on anti-HA antibody sepharose, one hour at 30° C., FIG. 5
[2] = GTP binding ability (UV cross-linking with [γ-35S] GTP, SDS-PAGE, autoradiography); conditions: [γ-35S] GTP 1 μM, one hour at 30° C., protein expressed in E. coli DH5α
Method: As Mms 16 of the present invention contained many GTP binding proteins and homologous sequences, the GTP binding ability of Mms 16 was investigated as follows. 1 μl of [γ-^35S] GTP (1 μM; 1,250 Ci/mmol) and cell homogenate were mixed in 20 μl binding buffer (50 mM Tris-HCl, 5 mM MgCl2, 1 mM EDTA, 0.3% Tween 20), and kept still for one hour at 30° C. Then, the obtained reaction mixture was kept still on ice for 20 minutes, and ultraviolet bridging was performed between GTP and protein by using an ultraviolet lamp. Subsequently, ½ amount of 3× sample buffer was added to the reaction solution to denature the protein, and sepharose beads were precipitated by centrifugation, supernatant was loaded onto 15% (w/v) acrylamide gel. After SDS-PAGE, the gel was dried and wrapped in Saran Wrap, and detection was conducted by autoradiography.
As a result, in addition to the protein that binds to [γ-^35S] […] GTP. In case where [α-^32P] GTP is used, [α-^32P] GTP binding type of GTPase is not observed because GDP also dissociates from GTPase when phosphoric acid in position γ dissociates from GTP binding type GTPase by hydrolysis activity. However, in case where [γ-^35S] GTP is used, it is possible to show the presence of GTPase because S is binding to 5′ of phosphoric acid in position γ, and therefore, hydrolysis is not caused by GTPase.

Row | GTP binding ability [2] | Molecule | GTPase activity [1]
1 | – | Mms 16-HA fusion protein: Mms 16 fused at C-terminal with hemagglutinin epitope tag (YPYDVPDYA), expressed in E. coli from pTrc 16HA | [α-^32P] GTP was hydrolyzed
2 | apparently bind to [γ-^35S] GTP | Mms 16: 16 kDa protein specific to a magnetic particle membrane of Magnetospirillum sp. AMB-1, amino acid sequence Seq. ID No. 2 (protein, listed as Magnetospirillum sp., X: residue not identified in the source, 16 kDa protein specific to a magnetic particle membrane of Magnetospirillum sp; ID No. 2) MAAKQTEQFFDFDVAKYLGDFKVPGVDVETIVANQRKNIEALTQANKLAFEGLQNVVKRQVEILRQTMDEVAQVSKDFAEPGSPQGKAAKQAEFAKDAFERALXNARELAEMIAKANSEAFDLLNKXFTQSLDEAREVFTKAGKK | has GTPase activity
